# Reference: patent publication US6790824B1, “Cytokines having neurotrophic activity” (Biopharm Gesellschaft zur biotechnologischen Entwicklung …, priority 1997, dated 2004)
# Experiments:
# [1] = system: chick ciliary ganglionic (CG) neurons; test: Survival of embryonic chick ciliary ganglionic (CG) neurons, 24 h, counting of surviving neurons; format: cell-based
# Protocol: (§1) Embryonic chick ciliary (CG), dorsal root (DRG), and sympathetic (SG) ganglia at embryonic day(s) (E) 8, 10, and 12, were dissected, freed from nerve roots and connective tissue and collected in CME. Ganglia were incubated in trypsin (ICN), washed and dissociated by trituration using fire-polished Pasteur pipettes. Cultures were set up in 96-well microtiter plates (Costar, A/2), precoated with poly-L-ornithine and laminin at a density of 1,200-1,500 cells/well in DMEM supplemented with N1 additives, 0.25% BSA, and 0.1% PSN (DME/N1) and incubated at 37° C. in a 5% CO2 incubator.
# (§2) At appropriate times (CG: 24 h, DRG: 48 h, SG: 72 h) cultures were fixed by addition of 2.5% glutardialdehyde in phosphate buffered saline (PBS). Numbers of surviving neurons were determined by direct counting of 30% of the surface area using phase contrast microscopy.
# Phosphatidylinositol-specific phospholipase C (PIPLC) is an enzyme that specifically cleaves glycosyl-phosphatidylinositol (GPI) linkages. Embryonic chick ciliary ganglionic neurons (E8) were isolated and seeded as described before. Neurons were incubated for 1 h at 37° C. with 1) 100 mU PIPLC or II) 100 mU PIPLC+2 ng/ml TGFβ or III) without enzyme and then growth factors were added. The number of surviving neurons was determined 24 h later.
# [2] = system: embryonic chicken dorsal root ganglia (DRG) neurons; test: Survival of dissociated embryonic chick dorsal root ganglia (DRG) neurons, 48 h, counting of surviving neurons; format: cell-based
# Protocol: Dissociated cultures of embryonic chicken dorsal root ganglia (DRG) were generated as described in details by Krieglstein and Unsicker (Neurochem. Res., 21(7) (1996) 843-850). Briefly, DRGs from white Leghorn chick embryos (day 8) were dissected in Ca^2+-Mg^2+ free Hanks' balanced salt solution. After incubation in 0.08% trypsin for 15 min ganglia were dissociated by trituration. Cells were seeded in polyomithin-laminin coated 96-well microtiter plates (A/2 Costar) at a density of 1,200 cells/well. Growth factors were applied at the time of plating in a final volume of […] Dulbecco's Modified Eagle's Medium supplemented with 0.25% bovine serum albumin, N1 additives and 100 U/ml penicillin. As a positive control, nerve growth factor (NGF) was used at the saturating concentration of 5 ng/ml. After 48 h of incubation at 37° C. in a humidified atmosphere containing 5% CO2, cultures were fixed with 2.5% glutaraldehyde. Neuronal cells were identified by their phase-bright and neurite-bearing morphologies and counted within 30% of the total surface area using phase contrast microscopy. In the first set of experiments we tested the survival promoting effect of several growth factors of the bone morphogenetic protein family.
# as §1, §2
# Dissociated cultures of embryonic chicken dorsal root ganglia (DRGs) were generated as described in details by Krieglstein and Unsicker (Dev. Brain. Rees. 93 (1996) 10-17). Briefly, DRGs were dissected in Ca^2+-Mg^2+ free Hank's balanced salt solution (CMF). After incubation in 0.08% trypsin (BioWhittaker) for 15 min, ganglia were dissociated by gentle trituration using fire-polished Pasteur pipettes. Cells in suspension (neuron/non-neuron ratio 1:2) were seeded in polyomithin-laminin coated 96-well microtiter plates (A/2 Costar) at a density of 1,200 cells/well. Growth factors were applied at the time of plating in a final volume of 50 μl Dulbecco's Modified Eagle's Medium supplemented with 0.25% bovine serum albumin, N1 additives (Bottenstein et al., Exp. Cell Res. 125 (1980) 183-190) and 100 U/ml penicillin. As a positive control, nerve growth factor (NGF) was used at the saturating concentration of 10 ng/ml. After 48 h of incubation at 37° C. in a humidified atmosphere containing 5% CO2, cultures were fixed with 2.5% glutaraldehyde in phosphate buffered saline (PBS). Neuronal cells were identified by their phase-bright and neurite-bearing morphologies and counted within 30% of the total surface area using phase contrast microscopy. All experiments were performed in at least triplicate in two independent experiments. Data are presented as mean±SEM. Statistical comparisons were made with student's double t-test, ANOVA and MicrocalOrigin software. Differences were considered statistically significant at *P<0.05, **P<0.01, **P<0.001.
# [3] = system: embryonic chicken dorsal root ganglia (DRG) neurons; test: as above; format: cell-based; conditions: E8, 10% horse serum, saturating GDNF; compared with NGF in serum-free medium
# [4] = system: chick sympathetic ganglionic (SG) neurons; test: Survival of embryonic chick sympathetic ganglionic (SG) neurons, 72 h, counting of surviving neurons; format: cell-based
# Protocol: as §1, §2
# [5] = system: rat embryonic mesencephalic dopaminergic neurons (E14); test: Survival of rat embryonic mesencephalic dopaminergic neurons, count of tyrosine hydroxylase (TH) immunoreactive neurons after 8 days; format: cell-based; conditions: GDNF 10 ng/ml, TGF-β3 2 ng/ml, 8 days in culture
# Protocol: FIG. 8 depicts the survival promoting effect of GDNF on rat embryonic mesencephalic dopaminergic neurons (E14) is dependent on the presence of TGF-β. Dissociated cultures were treated with GDNF (10 ng/ml), with GDNF in the presence of anti-TGF-β1, -β2, -β3 (10 μg/ml), with TGF-β3 (2 ng/ml) or without any growth factor added (control) for 8 days in culture. Numbers of dopaminergic neurons were determined by counting the numbers of tyrosine hydroxylase (TH) immunoreactive neurons.
# [6] = system: preganglionic neurons to the adrenal medulla; test: Preganglionic neuron protection in vivo after adrenomedullectomy; parameters: species or system rat; conditions: adult rats, 1 μg GDNF in gelfoam into the medullectomized adrenal gland, four weeks
# Protocol: This type of target deprivation causes the death of all preganglionic neurons to the adrenal medulla at four weeks, as previously shown by Blottner and Baumgarten (Exp. Neurol. 118 (1992) 35-46).
# Adrenomedullectomy was performed on adult male Hanover-Wistar rats. Preganglionic neurons in the spinal cord innervating adrenal medullary chomaffin cells were identified by retrograde tracing with Fast Blue or Fluoro-Gold (FG). Factors (1 μg each) were soaked in gelfoam (Spongostan, Ferrosan, Soeburg, Denmark) prior to implantation into unilaterally medullectomized adrenal glands. Numbers of FG-labeled preganglionic neurons were determined by cell counts of complete series of longitudinal sections through spinal cord segments T7-T10 four weeks post-surgery. Only brightly fluorescent neurons containing a clearly visible nucleus were counted. Total numbers were corrected for possible double counts of split nuclei according to Abercombie's formula. Numbers of preganglionic neurons to the adrenal medulla surviving in sham-operated animals and on the unlesioned side were set as 100%. Data are given as mean values±SEM and the statistical significance of intergroup differences was determined by Student's t-test.
# [7] = E8, serum-free, factor added by itself
molecule,measurement,setting,value
"GDNF: rh GDNF, neurotrophic factor, member of the TGF-β superfamily (protein, UniProt P39905 78-211, looked up) Glial cell line-derived …: SPDKQMAVLPRRERNRQAAAANPENSRGKGRRGQRGKNRGCVLTAIHLNVTDLGLGYETKEELIFRYCSGSCDAAETTYDKILKNLSRNRRLVSDKVGQACCRPIAFDDDLSFLDDNLVYHILRKHSAKRCGCI",CG neuron survival with GDNF supplemented with 10% horse serum,"[1]; E8, 24 h, compared with CNTF 5 ng/ml",as effectively as a saturating concentration of CNTF
same,EC50 of the synergistic survival effect,"[1]; factor titrated in combination with 2 ng/ml of the other factor (GDNF/TGF-β), serum-free",0.06 ng/mL
same,"CG neuron survival, single factor in fully-defined medium","[1]; serum-free, each at the saturating amount of 2 ng/ml",only marginal survival promoting effects
same,"DRG neuron survival, single factor in serum-free medium",[2]; [7],virtually no survival promoting effect
same,effect on DRG neuron survival when added together with GDF-5,"[2]; factor at saturating concentration plus GDF-5 20 ng/ml, E8, 48 h",synergistic or additive effects
same,DRG neuron survival with GDNF in serum containing medium,[3],levels identical to those achieved by addition of the respective neurotrophic factor
same,SG neuron survival with GDNF in serum containing medium,"[4]; E8, 10% horse serum, saturating GDNF, compared with NGF in serum-free medium",levels identical to those achieved by addition of the respective neurotrophic factor
same,"SG neuron survival, single factor in serum-free medium",[4]; [7],virtually no survival promoting effect
same,survival of dopaminergic neurons relative to untreated control cultures,[5],160%
same,protection of preganglionic neurons after adrenomedullectomy,[6],fully protected the neurons
